This data set concerns the molecule itself. Put plainly: SEC.

B1: recombinant NAP1L1 (aa 69-391 of isoform 1) with N-terminal His-tag (domain or fragment)
chain: SLPRVVKRRVNALKNLQVKCAQIEAKFYEEVHDLERKYAVLYQPLFDKRFEIINAIYEPTEEECEWKPDEEDEISEELKEKAKIEDEKKDEEKEDPKGIPEFWLTVFKNVDLLSDMVQEHDEPILKHLKDIKVKFSDAGQPMSFVLEFHFEPNEYFTNEVLTKTYRMRSEPDDSDPFSFDGPEIMGCTGCQIDWKKGKNVTLKTIKKKQKHKGRGTVRTVTKTVSNDSFFNFFAPPEVPESGDLDDDAEAILAADFEIGHFLRERIIPRSVLYFTGEAIEDDDDDYDEEGEEADEEGEEEGDEENDPDYDPKKDQNPAECKQQ
As for B1, the binding result is “binds”.

B2: recombinant NAP1L4 (aa 2-375 of isoform 1) with N-terminal His-tag (natural protein)
chain: ADHSFSDGVPSDSVEAAKNASNTEKLTDQVMQNPRVLAALQERLDNVPHTPSSYIETLPKAVKRRINALKQLQVRCAHIEAKFYEEVHDLERKYAALYQPLFDKRREFITGDVEPTDAESEWHSENEEEEKLAGDMKSKVVVTEKAAATAEEPDPKGIPEFWFTIFRNVDMLSELVQEYDEPILKHLQDIKVKFSDPGQPMSFVLEFHFEPNDYFTNSVLTKTYKMKSEPDKADPFSFEGPEIVDCDGCTIDWKKGKNVTVKTIKKKQKHKGRGTVRTITKQVPNESFFNFFNPLKASGDGESLDEDSEFTLASDFEIGHFFRERIVPRAVLYFTGEAIEDDDNFEEGEEGEEEELEGDEEGEDEDDAEINPKV
For the protein B2, the binding result is on record as “binds”.

Values taken from publication doi:10.1101/2021.05.19.444900 (bioRxiv, 2021).
